Assay: soluble on expression in E. coli; label from the status in PepcDB or PDB records

Sequence | soluble on expression in E. coli
MRTQNDLDRRLRSFGGRDGQMTTLSVRRLPVENGISGWEAISKRSKPVRRLEGDVTADWLIIGAGFAGLSAARRLTQLHPGETIVVLDASEVGKGTSGRNSGFMIDVPHNLASSEYSSGAIDATRLEMEQNRSAIAFAAAAAEDYGMSRQTFDPAGKINAAATRRGMTLNQNFAASLKNAGEKHTLLDAAQMRALTGSDYYLGGLYTPGAVLIQPADYIREFAAGLSPKVDIFENSPVTALRRENRAWKATTPSGSVTAPKVILGVNGHVDDFGHFRGRLIHIFAYASMTAPFAARDYGSRVSGQDKWALLPADAMGATVRKITSDGQSRIAIRTRYTYETTLDLTKHQLSKMVRAHRRSLDDRFPGLGGIPFEYSWSGRICLSLNHVPAFGEIEEGLFSACCENGLGTVKSTLAGMMAAELATGTTSRHLEQYMDHPAPSRLPPEPFAWLGINSVIRLQELRAGREGLEHHHHHH | not soluble
MFILSLLHDTVAIQPHQLSSDQQIVIKKRLNERLANKIIPDLGLCICVYDINEIGDSYILPGEGDCRARVKFRMIVFRPFVDEVIEAKVIGSSRQGLCLTIQFFEDIFVPAEKLPEPHVFEEEGQVWYWEYAQEDGEPPAKLYMDPGKIVRFRVTEIIFKDLKPELTHEERKTEKSMEIKGTMASTGLGCIGWWAAEDEDDEAVEDEQDEQEEVIQPKEEIRQPQEEVRQPVKIKEEPV | not soluble
SKSNLEYSFSNILKNIFSPIREKESVKKVIYYSIPIALTTASYRLVNDLDGIFILSMLGAYDNGVYGY | not soluble
MNLVHTPNANRLHIALFGKRNSGKSSLINALTGQDTALVSDTPGTTTDSVQKAMEIHGIGPCLFIDTPGFDDEGELGNRRIERTWKAVEKTDIALLLCAGGGSAEETGEPDFTEELHWLEQLKAKNIPTILLINKADIRKNTASLAIRIKETFGSQPIPVSAKEKTGVELIRQAILEKLPEDFDQQSITGSLVTEGDLVLLVMPQDIQAPKGRLILPQVQTMRELLDKKCLIMSCTTDKLQETLQALSRPPKLIITDSQVFKTVYEQKPEESRLTSFSVLFAGYKGDIRYYVKSASAIGSLTESSRVLIAEACTHAPLSEDIGRVKLPHLLRKRIGEKLSIDIVAGTDFPQDLTPYSLVIHCGACMFNRKYVLSRIERARLQNVPMTNYGVAIAFLNGILNQIEYLEHHHHHH | not soluble
MTYGPESLSNQELLAILLRTGTKKEHVLNLSIKILNGLDSLADFRSLSLEELQEIEGIGQVRSVEIKAMLELSKRINQAEYNFKERILSSERLAKIMMSELGDKRQEHLIAIYLDTQNRVIKKQVIFIGSVRRSVAEPREILHYACKSMATSLIIVHNHPSGSTYPSENDLRFTEKIKRSCDDLGIVFLDHIIVGKKEYYSFREETDLV | not soluble
MSNSTEPALAIITVTYSPGKHLGAFLSSVKEATAQPTYVVLADNGSVDGVPEAAAQADPSVEFFPTGGNIGYGSAINAAVRKLAPLRESGKINAEFFVLSNPDVVFEPGSIDAMVQCASRHPQAADIGPYIRQSDGSAYPSARQVPTIKNGVGHALFSSVWPSNPWSRAYRDNRDMTTERTAGWLSGSCLLVRWDAFEQIGGFDERYFMYMEDVDLGDRFGRAGFDNVFCPDAVITHAVGHAAGKHPEKMLPAHHDSAYRFQADRHPGLRYLPLRVLLRVGLKLRAVVAVAAAKFKLEHHHHHH | soluble
MAHVVILGAGTGGMPAAYEMKEALGSGHEVTLISANDYFQFVPSNPWVGVGWKERDDIAFPIRHYVERKGIHFIAQSAEQIDAEAQNITLADGNTVHYDYLMIATGPKLAFENVPGSDPHEGPVQSICTVDHAERAFAEYQALLREPGPIVIGAMAGASAFGPAYEYAMIVASDLKKRGMRDKIPSFTFITSEPYIGHLGIQGVGDSKGILTKGLKEEGIEAYTNCKVTKVEDNKMYVTQVDEKGETIKEMVLPVKFGMMIPAFKGVPAVAGVEGLCNPGGFVLVDEHQRSKKYANIFAAGIAIAIPPVETTPVPTGAPKTGYMIESMVSAAVHNIKADLEGRKGEQTMGTWNAVCFADMGDRGAAFIALPQLKPRKVDVFAYGRWVHLAKVAFEKYFIRKMKMGVSEPFYEKVLFKMMGITRLKEEDTHRKAS | soluble
MPGEFAKFPEQSAGSHQFRNPLDELTGSNTITNLTAHDFDYFTQSEKNSNLYTSENTSNSNRLNLNQNIPVGTLIDGFELINEASGSGFLDDQLVDVSDYSRDRTTKLDRNRNSPELIVALLQRKVQGIRFSSNYGREEEPCVIEIPPGTMVREMADDDWKMSELKEWFTKSRASSHLRDGLAMPMEELDCTPLICAMITRSDVMRINQDQAIHLLAVSVEKRIEVYQNFEWFNFILNLKIGDSVSVEVDETMRRVPAKVSWIGERPEASGIWYNVDFDGNTSQWPSSNQSYSSSHDRLNRQFDTNWNFEMSGSSSVAPSNSRLYYSPNQMHMPMKGGGVSALYDNRRLVQYSGDEEQYRSAPKPAPRERIIPVSRQQPEIEQRNSRSMKPSEPDYNTYSTHPPRPPPSSSMNYPSMSNTHSLQPSRSKSVQTIQRNQFVRQNPAERNERVESDQLNFRIGDQCIWNNNGAEERGIIKYIGFLKGHKTLYAGVEFKNTIGAGTGVFNREQLFLAKDGHAGFVELSSLESPSSSISSTSTSSSQHRRRLSSSRSQQMPAASGTSISVPVNGRHNVNGKQASIESLSDPPPPPYAPPSPPRASSAAAAHQQPPPLPPKPLARVEDFLIDSYDIGSHVVVRHLGAQRTGVVRWLGEEIDDEGDRIVRSAIVQLDEDVPTAWRRSHDASSYTGSPVVGGVLVPIQSLKHNHSGSSSNGASVVQTSTYPTSQTYNNISRRTEDFGSMDSGVEKQKCGIAKDMQQLVGRQKGIQGYCNSCYLDATLYAMFVQTTCFDFLLEKSIKGSETAQQFQKILAHEIVFPLRKVHYVRADHVMKLRKLLAELMPHVTGLTNEEKDPEEILGFIFSKVFHAEPFIKLIGQNHAKDSQYLVPIVVDDWLGGAATSQHLLERHMRSAQVTFAKAPPVLIMQLPRYGQQKVFDKILPLETIDITPFVAGAVPACSKCQACSEVYCPTCFLTRRVFYSEVIFCRKCFHHTHLLPEIEDHKSRDLYPPGKPQKKPHSHKMVLSAVLCIETSHYVAYVRTSSNQWVFFDSMADREGLSDGFNVPVVRECGNMSDWLSLQGWNRLKDADECGQIKVWELNKNISPNDRKLEIAMFGKQSSLDPLVGRLLSDSYICFYEDASPTSSSSSSSTIISSIKNMMN | not soluble
MGSDKIHHHHHHMLNEMEKTVLQMIMAGSDISRVDISRALGISKPVVSKAVNRLIELGFVKEAGRKESSSKGGRKPVLLSFVPESRYVIGVDIGGTKIDAVLTDLVGNVLNKEHILLPSNLDKRKLLELIKKVIHPFLVYERILGIGIGIPGTVDEDHLVKRIPAFDVTDWDLKEELEKTFGYPVFVENNANLDAFAEAKIGAGRGFRCVLLISVGWGIGSGIVYDGKIFRGARGKAGEFGHIVTDWSKEKEIVLEKGFGHLEEWFSGFSMSKRFGKSPEWVFEKRHNEIKKNLEHFGVAVANAIVLFDPDVVIIKGGIGLHQFEKISAVVRSVVSKIVPEDILKDVEIRKGEIEEYGVAIGGALFVIENILGLKGGGKYEGCQASREVGSKAGV | not soluble
MGSDKIHHHHHHMNKLINRISPETSENRILHAGFSIILMSEEITQTLSGLSSDMIIFILSGSITIYSTKEEKKTIGEQYMIFLRSFENYTYDITLGSKIIIFFFDSLTMNELPYYQHPYGILPQPISKWIELKIVEPLYGFLELVGQYLENNFLNYPLYELKRTELFYLLKKLYRKEELDYFFYLSSTHSAEFERLIAENYIKAKTVTDLAQMIGYGVNSFRMKFKKVFGIPAYEWLMQEKSKRLLVAIANSEDDFKNIIDEFDFSSHSHFYKFCKARFGYSPTELRKKLKSL | not soluble
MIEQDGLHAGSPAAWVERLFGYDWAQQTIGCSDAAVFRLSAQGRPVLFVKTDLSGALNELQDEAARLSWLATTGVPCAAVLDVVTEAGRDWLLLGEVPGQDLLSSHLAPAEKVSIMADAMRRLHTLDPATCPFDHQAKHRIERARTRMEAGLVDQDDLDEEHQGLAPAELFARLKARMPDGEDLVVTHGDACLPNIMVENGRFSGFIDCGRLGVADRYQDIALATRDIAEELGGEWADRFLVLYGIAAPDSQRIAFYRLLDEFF | soluble
VRMVGLTIETRPDWAFERQIDRMLAFGTTRVELGVQTIFNFIHERVGRGHGVEEIIKATQLLRDAGLKINYHIMPGLPGSNFERDLYVFKTIFEDPRFRPDMLKIYPTLVTRDAPLYAWYKAGLYKPYTTEEAVELLVEAYKIFPKWVRVMRIQRDIPSHLIVAGVKHSNLGQLVFEELVRRGIRPREI | not soluble

From the DeepSol protein solubility set
